Test results taken from patent publication US20130040894A1, “INHIBITION OR ACTIVATION OF SERINE/THREONINE ULK3 KINASE ACTIVITY” (TALLINN UNIVERSITY OF TECHNOLOGY, priority 2009, published 2013).

How the values were obtained:
FLAG-tagged GLI2, P10070 = molecular target: T1, FLAG-tagged GLI2, P10070
T1 chain: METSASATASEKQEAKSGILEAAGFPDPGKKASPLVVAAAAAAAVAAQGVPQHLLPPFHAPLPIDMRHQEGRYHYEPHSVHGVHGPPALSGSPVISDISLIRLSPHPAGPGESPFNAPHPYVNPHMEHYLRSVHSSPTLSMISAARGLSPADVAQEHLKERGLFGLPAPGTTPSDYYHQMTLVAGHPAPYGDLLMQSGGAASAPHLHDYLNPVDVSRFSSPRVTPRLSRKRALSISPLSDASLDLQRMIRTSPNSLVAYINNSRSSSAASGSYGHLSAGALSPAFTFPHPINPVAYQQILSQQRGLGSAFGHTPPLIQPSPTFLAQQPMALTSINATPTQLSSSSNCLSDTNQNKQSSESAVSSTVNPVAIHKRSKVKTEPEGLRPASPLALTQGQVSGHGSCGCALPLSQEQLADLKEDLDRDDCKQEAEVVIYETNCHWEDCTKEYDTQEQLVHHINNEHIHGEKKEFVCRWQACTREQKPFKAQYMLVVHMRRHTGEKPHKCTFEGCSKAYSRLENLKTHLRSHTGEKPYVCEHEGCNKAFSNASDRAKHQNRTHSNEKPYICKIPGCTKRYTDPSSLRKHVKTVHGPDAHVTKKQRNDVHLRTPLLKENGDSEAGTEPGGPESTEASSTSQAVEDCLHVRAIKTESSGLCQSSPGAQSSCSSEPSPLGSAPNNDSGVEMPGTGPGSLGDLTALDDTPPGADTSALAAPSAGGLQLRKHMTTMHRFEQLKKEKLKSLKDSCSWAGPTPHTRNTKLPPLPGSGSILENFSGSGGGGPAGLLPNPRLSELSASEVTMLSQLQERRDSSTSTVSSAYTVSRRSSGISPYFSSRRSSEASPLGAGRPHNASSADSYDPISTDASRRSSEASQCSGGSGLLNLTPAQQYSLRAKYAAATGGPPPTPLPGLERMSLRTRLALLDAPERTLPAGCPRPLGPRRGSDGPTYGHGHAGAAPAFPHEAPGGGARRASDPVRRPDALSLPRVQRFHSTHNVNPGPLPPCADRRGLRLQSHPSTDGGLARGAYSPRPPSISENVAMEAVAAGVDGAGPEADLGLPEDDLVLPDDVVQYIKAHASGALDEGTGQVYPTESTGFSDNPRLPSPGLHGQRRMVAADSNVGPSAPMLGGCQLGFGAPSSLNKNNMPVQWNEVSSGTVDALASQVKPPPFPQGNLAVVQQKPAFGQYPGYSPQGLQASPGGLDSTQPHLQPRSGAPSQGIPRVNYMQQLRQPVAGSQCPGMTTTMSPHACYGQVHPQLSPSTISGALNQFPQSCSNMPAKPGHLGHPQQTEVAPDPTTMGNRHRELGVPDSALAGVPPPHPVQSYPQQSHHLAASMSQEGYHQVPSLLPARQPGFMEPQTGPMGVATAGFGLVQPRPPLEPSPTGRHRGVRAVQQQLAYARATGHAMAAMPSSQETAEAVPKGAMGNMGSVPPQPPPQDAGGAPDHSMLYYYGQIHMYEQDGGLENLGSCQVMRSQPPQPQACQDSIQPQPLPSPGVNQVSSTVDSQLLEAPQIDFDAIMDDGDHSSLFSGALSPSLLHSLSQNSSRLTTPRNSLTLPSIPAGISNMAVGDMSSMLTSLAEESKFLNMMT

GLI1 = experiment: In vitro kinase assay, phosphorylation of GLI1; format: biochemical, human
Experimental: Three overlapping human GLI1 domains corresponding to amino acids 1-433, 426-754 and 726-1106 were cloned into pET-15b vector (Novagen) between NdeI and BamHI sites. GLI1 amino acid sequence is provided as SEQ ID NO: 2). The fragments were expressed in BL21(DE3)pLys E. coli strain overnight at 21° C. using 0.1 mM IPTG and purified using Ni-CAM™ HC resin (Sigma-Aldrich) according to the manufacturer's recommendations. The proteins were eluted by PBS and verified by Western Blot (WB).
(§1) HEK293 cells were transfected with 13.5 μg of FLAG-tagged constructs expressed GLI1, GLI2, GLI3, ULK3, ULK3(K44R), ULK3(K139R) or FLAG-CMV-4 empty vector on 10 cm plates. The cells were lysed with 0.5 ml of Lysis Buffer (50 mM Tris HCl, pH 7.4, 150 mM NaCl, 1 mM EDTA, 1% Triton X-100) containing protease inhibitor cocktail (PIC) (Roche Applied Science). The lysates were centrifuged for 15 min at 4° C. and 15000 g, and the supernatants were used for immunoprecipitation (IP). IP was performed using anti-FLAG-M2 affinity gel (Sigma-Aldrich) in batch format according to the manufacture's instructions. Immune complexes were washed three times with 500 μl of Kinase Buffer (KB) (50 mM HEPES, pH 7.4, 20 mM MgCl2, 25 μM ATP) and resuspended in 12.5 μl of KB. One fifth of the immuno-complexes was subjected to WB and the rest was used for the kinase assay.
(§2) Kinase reactions were carried out in KB in a total volume of 20 μl of in the presence of 1 μCi of [γ-^32P]ATP per reaction. We used 1 μl of the immunoprecipitated ULK3, ULK3(K44R) or ULK3(K139R) mixed with 5 μl of the GLI-M2 immunocomplexes or 5 μl of bacterially expressed and purified His-GLI1 fragments. Kinase reactions were held at 30° C. for 30 min and terminated by adding of 5 μl of 4× Laemmli Sample Buffer. Proteins were resolved by SDS-PAGE. The gel was dried at 80° C. for 2 h, and autoradiography was performed using Bio-Rad Personal Molecular Imager FX.
We also assayed whether ULK3 is able to phosphorylate GLI proteins. FLAG-tagged GLI1, GLI2 and GLI3 proteins were expressed and immunoprecipitated from HEK293 cells and used as substrates for immunopurified ULK3 in the in vitro kinase assay. ULK3 was able to phosphorylate GLI proteins but with different efficiency (FIG. 3B). […] To support these findings and identify the regions in GLI1 protein that are phosphorylated by ULK3, we used bacterially expressed His-tagged fragments of GLI1 as substrate for ULK3 kinase. Two of them—GLI1(1-433) and GLI1(726-1106)—were phosphorylated by ULK3.

GLI2 = experiment: In vitro kinase assay, phosphorylation of GLI2; format: biochemical; details: FLAG-tagged GLI2 immunoprecipitated from HEK293 cells
Experimental: as §1
as §2, with “The gel was dried at 80° C. for 2 h, and autoradiography was performed using Bio-Rad Personal Molecular Imager FX.” left out

[1] = bacterially expressed His-tagged fragment

B1: FLAG-tagged wild-type ULK3 (human serine/threonine kinase ULK3) (protein)
chain: MAGPGWGPPRLDGFILTERLGSGTYATVYKAYAKKDTREVVAIKCVAKKSLNKASVENLLTEIEILKGIRHPHIVQLKDFQWDSDNIYLIMEFCAGGDLSRFIHTRRILPEKVARVFMQQLASALQFLHERNISHLDLKPQNILLSSLEKPHLKLADFGFAQHMSPWDEKHVLRGSPLYMAPEMVCQRQYDARVDLWSMGVILYEALFGQPPFASRSFSELEEKIRSNRVIELPLRPLLSRDCRDLLQRLLERDPSRRISFQDFFAHPWVDLEHMPSGESLGRATALVVQAVKKDQEGDSAAALSLYCKALDFFVPALHYEVDAQRKEAIKAKVGQYVSRAEELKAIVSSSNQALLRQGTSARDLLREMARDKPRLLAALEVASAAMAKEEAAGGEQDALDLYQHSLGELLLLLAAEPPGRRRELLHTEVQNLMARAEYLKEQVKMRESRWEADTLDKEGLSESVRSSCTLQ
in vitro kinase assay, phosphorylation signal (32P autoradiography) (FLAG-tagged GLI2, P10070): The strongest phosphorylation signal was detected in the case of GLI2

B2: ULK3: human serine/threonine kinase, 472 amino acids (SEQ ID NO: 1), overexpressed from cloned cDNA or immunopurified FLAG-tagged (protein, listed as Homo sapiens)
chain: MAGPGWGPPRLDGFILTERLGSGTYATVYKAYAKKDTREVVAIKCVAKKSLNKASVENLLTEIEILKGIRHPHIVQLKDFQWDSDNIYLIMEFCAGGDLSRFIHTRRILPEKVARVFMQQLASALQFLHERNISHLDLKPQNILLSSLEKPHLKLADFGFAQHMSPWDEKHVLRGSPLYMAPEMVCQRQYDARVDLWSMGVILYEALFGQPPFASRSFSELEEKIRSNRVIELPLRPLLSRDCRDLLQRLLERDPSRRISFQDFFAHPWVDLEHMPSGESLGRATALVVQAVKKDQEGDSAAALSLYCKALDFFVPALHYEVDAQRKEAIKAKVGQYVSRAEELKAIVSSSNQALLRQGTSARDLLREMARDKPRLLAALEVASAAMAKEEAAGGEQDALDLYQHSLGELLLLLAAEPPGRRRELLHTEVQNLMARAEYLKEQVKMRESRWEADTLDKEGLSESVRSSCTLQ
modifications: PEPTIDE (1)..(472) ULK3
phosphorylation of GLI1 (GLI1; FLAG-tagged GLI1 immunoprecipitated from HEK293 cells): significantly lower intensity as compared to GLI2
phosphorylation of GLI1(1-433) fragment (GLI1; [1]): phosphorylated
phosphorylation of GLI1(726-1106) fragment (GLI1; [1]): phosphorylated
phosphorylation of central part of GLI1 (amino acids 426-754) (GLI1; [1]): not phosphorylated
phosphorylation of GLI2 (GLI2): strongest phosphorylation signal
